Laboratory results: patent US20260103529A1, “Amino Acid Sequences Directed Against the Melanocortin 4 Receptor and Polypeptides Comprising the Same for the Treatment of MC4R-Related Diseases and Disorders” (Confo Therapeutics N.V., priority 2022, published 2026)

B1: pN152: agonistic anti-MC4R VHH, SEQ ID NO: 183 (protein)
VHH: QVQLVESGGGLVQPGGSLKLSCAASGSISSKSDWGWYRQAPGKERELVAQITSGGNLKYASAVTGRFTISRDNAKNTVNLLMSRLKPEDTAIYFCNARTWRLVRYYDYWGQGTQVTVSS
modifications: pN0152
B2: pN161: agonistic anti-MC4R VHH, SEQ ID NO: 314 (protein)
VHH: QVQLVESGGGLVQAGGSLRLSCAASGSISRTNGMGWYRQAPGKQRELVAAITTGGSTNYANSAKGRFTISRDNAKNTVYLQMNSLKPEDTAVYYCNARYGSSSFRWGDFEVWGQGTQVTVSS
modifications: PN0161

Target: human wild type MC4R (Homo sapiens, UniProt P32245)
Assay: cAMP signaling assay (Lance Ultra HTRF)
Type: cell-based
Parameters: double Twin Strep tag; expressed in transfected cells; host or cells: HEK293
Settings: purified nanobodies, human MC4R-overexpressing HEK293 cells, read-out: potencies, MC4R-mediated dose-dependent cAMP accumulation
Protocol: To confirm MC4R activation, dose-dependent nanobody-induced cAMP signaling was assessed (Lance Ultra HTRF). […] Binding of pN162 to the human melanocortin receptor subtypes MC1R, MC2R, MC3R, MC4R or MC5R transiently expressed as Flag-tagged receptors in HEK293T cells was assessed by flow cytometry.

Chain of human wild type MC4R (P32245 whole entry): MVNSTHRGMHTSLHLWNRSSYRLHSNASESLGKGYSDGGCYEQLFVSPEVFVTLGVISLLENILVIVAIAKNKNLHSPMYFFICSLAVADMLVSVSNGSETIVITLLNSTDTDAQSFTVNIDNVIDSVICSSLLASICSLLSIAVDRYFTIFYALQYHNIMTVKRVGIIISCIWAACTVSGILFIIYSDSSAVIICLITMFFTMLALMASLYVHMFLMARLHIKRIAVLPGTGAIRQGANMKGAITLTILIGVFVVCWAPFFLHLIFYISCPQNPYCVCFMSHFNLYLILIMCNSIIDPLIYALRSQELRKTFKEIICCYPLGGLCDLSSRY

| Molecule | EC50 |
| --- | --- |
| B1 | 0.0007 µM |
| B2 | 0.393 µM |
